The target in this assay is recombinant HER2 ectodomain (human, UniProt P04626 23-652). The experiment in a line: column shift assay: gel filtration monitored at A280, diabody pre-incubated with recombinant HER2 ectodomain.

Procedure: Binding activity to soluble antigen was established by a column shift. […] In the column shift assay, at least two times mole excess of soluble antigen to diabody was incubated for 1 hr at ambient temperature. Binding activity was determined by comparing the resulting diabody/antigen complex peak to the free diabody peak. The elution profiles of the diabody or diabody/antigen complex was monitored either directly though absorbance at 280 nm or, in cases where the diabody was Europium labelled, elution fractions were measured in a Victor time-resolved fluorometer using the Europium mode in the Victor multilabel program wizard.

B1: AVP07-17 anti-Her2 diabody (other)
chain: QVQLVQSGAEVKKPGESLKISCKGSGYSFTSYWIAWVRQMPGKGLEYMGLIYPGDSDTKYSPSFQGQVTISVDKSVSTAYLQWSSLKPSDSAVYFCARHDVGYCSSSNCAKWPEYFQHWGQGTLVTVSSGGGGSQSVLTQPPSVSAAPGQKVTISCSGSSSNIGNNYVSWYQQLPGTVPKLLIYGHTNRPAGVPDRFSGSKSGTSASLAISGFRSEDEADYYCAAWDDSLSGWVFGGGTKLTVLGAAAEQKLISEEDLNGAAHHHHHH
notes: Diabody: homodimer of VH-Gly4Ser-VL chains from a human anti-HER2 mAb, with a C-terminal His6 tag from cloning; also called AVP07-17 Avibody
With B1, the binding result was “binds”.
